From patent publication US11708423B2, “Chimeric engulfment receptor molecules and methods of use” (CERO THERAPEUTICS, INC., priority 2017, dated 2023)

How the values were obtained:
[1] = test system: HCC159 lung adenocarcinoma cells; experiment: Interferon Gamma secretion, HCC159 co-culture; format: cell-based; details: Osimeritinib 0, 1, 5 nM; 18 hours
Description: HCC159 lung adenocarcinoma cells were co-cultured with CER123- or CER126-expressing CD4+ T cells with increasing concentrations of Osimeritnib (0, 1 nM, 5 nM). After 18 hours of co-culture, bulk supernatants were evaluated using a LDH-based cytotoxicity assay. T cells assays were performed using purified, EGFR^+ (transduction marker), CER modified T cells 7 days after activation using CD3 & CD28 microbeads at effector:target cell ratios of 2:1 or 5:1. Control “Mock” T cells were transduced with vector alone. […] Bulk supernatants were also analyzed after 18 hours of co-culture for Interferon Gamma (IFNγ) secretion (FIG. 50). Control “Mock” T cells were transduced with vector alone.

[2] = test system: H1975 EGFR+/Luciferase+ cells; experiment: Adoptive transfer of CER T cells with EGFR inhibitor in H1975 xenograft; format: in vivo, immunodeficient (NSG) mice; details: Osimeritinib 1 mg/kg intraperitoneally + 10e6 CER-transduced human T cells, NSG mice
Description: The combination of CER therapy and EGFR inhibitor therapy was also evaluated in vivo. […] H1975 EGFR+/Luciferase^+ cells were engrafted into immunodeficient (NSG) mice 14 days prior to initiation of study and evaluated for engraftment by bioluminescent emission and tumor volume seven days later. The day prior to CER adoptive transfer (day-1), animals with established tumors were randomized into groups and treated with Osimeritinib 1 mg/kg (intraperitoneally) and then infused by tail vein with 10e6 CER-transduced human T cells. Animals received 10 μg of systemic IL-2 every 24 hours×3 days following cell infusion and then monitored for tumor progression and cell expansion and persistence thereafter. Tumor volume measurements were obtained post-adoptive transfer in untreated, Osimeritinib treated (1 mg/kg)+mock-transduced T cells (vector only), and Osimeritinib (1 mg/kg)+CER122-transduced T cells (n=5/group) (FIG. 79).

H1975 NSCLC cells = experiment: Phagocytosis of Osimeritinib-treated H1975 cells by CER122 T cells; format: cell-based; details: 500 nM osimeritinib, 12 hours, CD4+ T cells
Description: H1975 NSCLC cells were treated with 500 nM Osimeritinib and then labeled with pH-rodo red, a pH sensing dye, to indicate localization to low-pH retaining endosomes. CD4+ T cells were transduced with a lentiviral vector comprising a CER122 nucleic acid and tEGFR nucleic acid (transduction marker). CER122 has a polypeptide sequence as set forth in SEQ ID NO:149 and comprises a Tim4 binding domain, Tim4 transmembrane domain, and an engulfment signaling domain comprising a primary engulfment signaling domain comprising a TLR2 signaling domain and a secondary engulfment signaling domain comprising a DAP12 signaling domain. CER122-transduced T cells labeled with CELLTRACE Violet were co-cultured with Osimeritinib-treated H1975 NSCLC cells. Fluorescent microscopy images (40X) were obtained 12 hours after co-culture of H1975 cells and CER-expressing T cells (FIG. 47, top left panel). […] Phagocytic events can be visualized as pHrodo red targets within CELLTRACE Violet labeled T cells. An enlargement of phagocytosis of pHrodo red labeled H1975 cells by CELLTRACE Violet labeled CER122-modified T cells is shown in the bottom panel of FIG. 47, with white arrows indicating phagocytic events.

[3] = test system: H1703 non-small cell lung cancer cells; experiment: Killing of paclitaxel treated H1703 cells by CER21+ human primary B cells; format: cell-based; details: Paclitaxel 30 μM, target:effector 5:1, 3 hours, vs EGFRt B cells
Description: Human primary B cells were transduced with pLenti Tim4-TLR8 (CER21) lentivirus expressing truncated EGFR as a transduction marker and stained with CELLTRACE Violet as described in Example 1. One day prior to setting up a co-culture assay, H1703 non-small cell lung cancer cells were incubated with phosphatidylserine inducing chemotherapy Paclitaxel (30 μM) in serum-free media for 24 hours. Floating and adherent H1703 cells were collected, centrifuged, incubated with pHrodo red (1 ng/μL) for 15 minutes at room temperature in PBS, washed, and then plated in a non-adherent 96 well plate. Human CER21+ B cells and H1703 cells were co-cultured at a target cell to effector cell ratio of 5:1 at 37° C. for 3 hours. B cells transduced with truncated EGFR were used as control. The plate was then imaged using a 20X objective, Keyence BZ-X710 microscope (FIG. 21). Cells undergoing apoptosis show increasing Red fluorescence as the intracellular pH drops in the earliest stages of apoptosis (FIG. 21, top row). Adjacent cells not induced by Paclitaxel treatment remain only dimly fluorescent. Apoptotic measurements in the presence of CER21+ B cells were quantified as the Area under the Curve of red fluorescent objects and outlined in blue using automated software (FIG. 21, bottom row; FIG. 22), for each high powered field. White arrows show apoptosis events.

[4] = test system: staurosporine treated Jurkat cells; experiment: Phagocytosis and cytolysis of staurosporine treated Jurkat cells by CER21+ human primary B cells; format: cell-based
Description: One day prior to setting up the phagocytosis assay, Jurkat human B lymphocytes were cultured in complete RPMI 1640 growth media supplemented with 10% fetal bovine serum and 1% penicillin-streptomycin in a 6 well plate and treated with 1 mM staurosporine for three hours to induce apoptosis. Jurkat cells were washed twice in lx PBS to remove excess staurosporine and then stained with pHrodo Red (1 ng/μ.1 in PBS) for 15 minutes at room temperature. The Jurkat cells were supplemented with growth media, washed once to remove excess pHrodo Red, and plated on flat bottom 96 well plates at approximately 250,000 cells/well in RPMI 1640 complete media.
Transduced CER21+ human primary B cells were washed once with 1×PBS and stained with 1 μM CELLTRACE Violet in PBS for 10 minutes at 37° C. The CER21+ human primary B cells were supplemented with growth media, washed once with 1×PBS to remove excess CELLTRACE Violet, and plated onto 96 well plate at approximately 50,000 cells/well in RPMI 1640 complete media. Human CER21+primary B cells and Jurkat cells were co-cultured at a target cell to effector cell ratio of 5:1 at 37° C. for 3 hours. After incubation, the co-culture plate was then centrifuged, and the media replaced with PBS supplemented with 2% fetal bovine serum, pH 9. Phagocytic events were quantified by fluorescent microscopy (KEYENCE BZ-X710 fluorescence microscope, 20X objective). […] Solid arrows show engulfment activity. Dashed arrows show cytolytic activity.
Apoptotic cells were quantified from fluorescent images using automated software, and the number of apoptotic cells per high power view (FIG. 20A) and total fluorescence emission per high power view (FIG. 20B) were calculated using pH indicator dye.

[5] = human primary B cells, target:effector 5:1, 3 hours

B1: CER123: Tim4 binding and transmembrane domains, TLR2 primary and TRAF6 secondary signaling domains; SEQ ID NO:150 (protein)
chain: MSKGLLLLWLVTELWWLYLTPAASEDTIIGFLGQPVTLPCHYLSWSQSRNSMCWGKGSCPNSKCNAELLRTDGTRIISRKSTKYTLLGKVQFGEVSLTISNTNRGDSGVYCCRIEVPGWFNDVKKNVRLELRRATTTKKPTTTTRPTTTPYVTTTTPELLPTTVMTTSVLPTTTPPQTLATTAFSTAVTTCPSTTPGSFSQETTKGSAFTTESETLPASNHSQRSMMTISTDIAVLRPTGSNPGILPSTSQLTTQKTTLTTSESLQKTTKSHQINSRQTILIIACCVGFVLMVLLFLAFLHRFHGLWYMKMMWAWLQAKRKPRKAPSRNICYDAFVSYSERDAYWVENLMVQELENFNPPFKLCLHKRDFIPGKWIIDNIIDSIEKSHKTVFVLSENFVKSEWCKYELDFSHFRLFDENNDAAILILLEPIEKKAIPQRFCKLRKIMNTKTYLEWPMDEAQREGFWVNLRAAIKSMSLLNCENSCGSSQSESDCCVAMASSCSAVTKDDSVGGTASTGNLSSSFMEEIQGYDVEFDPPLESKYECPICLMALREAVQTPCGHRFCKACIIKSIRDAGHKCPVDNEILLENQLFPDNFAKREILSLMVKCPNEGCLHKMELRHLEDHQAHCEFALMDCPQCQRPFQKFHINIHILKDCPRRQVSCDNCAASMAFEDKEIHDQNCPLANVICEYCNTILIREQMPNHYDLDCPTAPIPCTFSTFGCHEKMQRNHLARHLQENTQSHMRMLA
modifications: CER123 protein
Interferon Gamma (IFNγ) secretion [1]: inducible cytokine secretion

B2: CER122: Tim4 binding and transmembrane domains, TLR2 primary and DAP12 secondary signaling domains; SEQ ID NO:149 (protein)
chain: MSKGLLLLWLVTELWWLYLTPAASEDTIIGFLGQPVTLPCHYLSWSQSRNSMCWGKGSCPNSKCNAELLRTDGTRIISRKSTKYTLLGKVQFGEVSLTISNTNRGDSGVYCCRIEVPGWFNDVKKNVRLELRRATTTKKPTTTTRPTTTPYVTTTTPELLPTTVMTTSVLPTTTPPQTLATTAFSTAVTTCPSTTPGSFSQETTKGSAFTTESETLPASNHSQRSMMTISTDIAVLRPTGSNPGILPSTSQLTTQKTTLTTSESLQKTTKSHQINSRQTILIIACCVGFVLMVLLFLAFLHRFHGLWYMKMMWAWLQAKRKPRKAPSRNICYDAFVSYSERDAYWVENLMVQELENFNPPFKLCLHKRDFIPGKWIIDNIIDSIEKSHKTVFVLSENFVKSEWCKYELDFSHFRLFDENNDAAILILLEPIEKKAIPQRFCKLRKIMNTKTYLEWPMDEAQREGFWVNLRAAIKSYFLGRLVPRGRGAAEAATRKQRITETESPYQELQGQRSDVYSDLNTQRPYYK
modifications: CER122 protein
anti-tumor response (tumor volume) [2]: enhanced anti-tumor responses in EGFR+NSCLC model in vivo | phagocytosis of H1975 cells (H1975 NSCLC cells): phagocytic elimination of EGFR-mutated NSCLC cells

B3: CER21: Tim4 binding and transmembrane domains, TLR8 signaling domain; SEQ ID NO:88 (protein)
chain: MSKGLLLLWLVTELWWLYLTPAASEDTIIGFLGQPVTLPCHYLSWSQSRNSMCWGKGSCPNSKCNAELLRTDGTRIISRKSTKYTLLGKVQFGEVSLTISNTNRGDSGVYCCRIEVPGWFNDVKKNVRLELRRATTTKKPTTTTRPTTTPYVTTTTPELLPTTVMTTSVLPTTTPPQTLATTAFSTAVTTCPSTTPGSFSQETTKGSAFTTESETLPASNHSQRSMMTISTDIAVLRPTGSNPGILPSTSQLTTQKTTLTTSESLQKTTKSHQINSRQTILIIACCVGFVLMVLLFLAFLHHLFYWDVWFIYNVCLAKVKGYRSLSTSQTFYDAYISYDTKDASVTDWVINELRYHLEESRDKNVLLCLEERDWDPGLAIIDNLMQSINQSKKTVFVLTKKYAKSWNFKTAFYLALQRLMDENMDVIIFILLEPVLQHSQYLRLRQRICKSSILQWPDNPKAEGLFWQTLRNVVLTENDSRYNNMYVDSIKQY
modifications: CER21 chimeric engulfment receptor
killing of paclitaxel treated H1703 cells (apoptotic object area) [3]: enhance killing of target cells at sub-therapeutic dose of chemotherapy | in vitro cytolysis of engulfed Jurkat cells [4, 5]: in vitro cytolysis of Jurkat cells | in vitro phagocytosis of Jurkat cells [4, 5]: in vitro phagocytosis | killing of target cells (apoptotic cells and fluorescence per high power view) ([4]; staurosporine treated (subtherapeutic dose) Jurkat cells): enhanced killing of target cells
